# Experiments:
# [1] = test system: mouse aortic endothelial cells (MAE); experiment: Endothelial tube formation on Matrigel; format: cell-based; conditions: for ED50: endothelial tube assay (FIGS. 30 and 31)
# Method: To measure inhibition of endothelial tube formation, 320 μl of Matrigel (Collaborative Biomedical Products, Bedford, Mass., USA) was added to each well of a 24-well plate and allowed to polymerize (Grant, D. S. et al., 1994, Pathol. Res. Pract. 190:854-63). A suspension of 25,000 mouse aortic endothelial cells (MAE) in EGM-2 medium (Clonetics Corp., San Diego, Calif., USA) without antibiotic was passed into each well coated with Matrigel. The cells were treated with increasing concentrations of either Arresten, BSA, sterile PBS or the 7S domain. All assays were performed in triplicate. Cells were incubated for 24-48 hours at 37° C. and viewed using a CK2 Olympus microscope (3.3 ocular, 10× objective). The cells were then photographed using 400 DK coated TMAX film (Kodak). Cells were stained with diff-quik fixative (Sigma Chemical Company, St. Louis, Mo., USA) and photographed again. Ten fields were viewed, and the tubes counted and averaged.
# Matrigel (Collaborative Biomedical Products, Bedford, Mass., USA) was added ([…]) to each well of a 24 well plate and allowed to polymerize (Grant, D. S. et al., supra). A suspension of 25,000 mouse aortic endothelial cells (MAE) in EGM-2 (Clonetics Corporation, San Diego, Calif., USA) medium without antibiotic was passed into each well coated with Matrigel. The cells were treated with either Canstatin, BSA, sterile PBS or α5-NC1 domain in increasing concentrations. All assays were performed in triplicate. Cells were incubated for 24-48 hours at 37° C. and viewed using a CK2 Olympus microscope (3.3 ocular, 10× objective). The cells were then photographed using 400 DK coated TMAX film (Kodak). Cells were stained with diff-quik fixative (Sigma Chemical Co., St. Louis, Mo., USA) and photographed again (Grant, D. S. et al., 1994, Pathol. Res. Pract. 190:854-63). Ten fields were viewed, tubes counted and averaged.
# Matrigel (Collaborative Biomedical Prods., Bedford, Mass., USA) was added ([…]) to each well of a 24-well plate and allowed to polymerize (Grant, D. S. et al., 1994, Pathol. Res. Pract. 190:854-63). A suspension of 25,000 MAE cells in EGM-2 medium (Clonetics Corporation, San Diego, Calif., USA) without antibiotic was passed into each well coated with Matrigel (Grant, D. S. et al., 1994, Pathol. Res. Pract. 190:854-63). The cells were treated with either Tumstatin, BSA or 7S domain in increasing concentrations. Control cells were incubated with sterile PBS. All assays were performed in triplicate. Cells were incubated for 24-48 hours at 37° C. and viewed using a CK2 Olympus microscope (magnification of 3.3× ocular, 10× objective). The cells were then photographed using 400 DK coated TMAX film (Kodak). Cells were stained with diff-quik fixative (Sigma Chemical Co.) and photographed again (Grant, D. S. et al., 1994, Pathol. Res. Pract. 190:854-63). Ten fields were viewed, and the number of tubes were counted by two investigators unaware of the experimental protocols, and averaged.
# Fragments and mutants of Arresten and Canstatin were also made according to the Pseudomonas elastase digestions of Mariyama et al. (1992, J. Biol. Chem. 267:1253-58). The digest was resolved by gel filtration HPLC and the resultant fragments were analyzed by SDS-PAGE and evaluated in the endothelial tube assay described above. These fragments included a 12 kDa fragment of Arresten, an 8 kDa fragment of Arresten, and a 10 kDa fragment of Canstatin. In addition, two fragments of Tumstatin (‘333’ and ‘334’) were generated by PCR cloning.
# PC-3 tumors = experiment: PC-3 prostate tumor xenograft in SCID mice; format: in vivo; conditions: 10 mg/kg
# Method: Human prostate adenocarcinoma cells (PC-3 cells) were harvested from culture and 2 million cells in sterile PBS were injected subcutaneously into 7- to 9-week-old male SCID mice. The tumors grew for approximately 4 weeks after which animals were divided into groups of 4 mice. […] The control group received equal volumes of PBS each day. At the start of treatment (day 0), the tumors ranged in volume from 88 mm^3 to 135 mm^3 for the control mice, and 108 mm^3 to 149 mm^3 for the Canstatin-treated mice. Each group contained five mice. […] Canstatin-treated (▪) tumors increased only marginally in size relative to controls (□).
# ERK = ERK activation (phospho-ERK western blot) in HUVEC; format: cell-based, human; conditions: 20 μg/ml
# Method: In order to further understand the molecular mechanisms involved in Canstatin's anti-proliferative and anti-migratory activities, the effect of Canstatin on ERK (Extracellular signal-Regulated Kinase) activation induced by 20% fetal bovine serum and endothelial mitogens was assessed. HUVEC cells were cultured overnight in McCoy's medium supplemented with 20% FBS, 1% penicillin/streptomycin, 100 μg/ml heparin and 50 μg/ml endothelial mitogen (Biomedical Technologies, Inc., Cambridge, Mass., USA). The following day, cells were washed and grown for 4 hours in low serum medium (McCoy's medium supplemented with 1% penicillin/streptomycin, 100 μg/ml heparin and 5% FBS). After 4 hours, the medium was replaced with fresh low serum medium with or without 20 μg/ml Canstatin. One hour later the serum concentration was adjusted to 20% and endothelial mitogen was added to a final concentration of 50 μg/ml. At 0, 5, 10, 25, and 40 minutes, the cells were washed with PBS and lysed with passive lysis mix (Promega, Madison, Wis., USA) plus leupeptin, PMSF, NaF, Na3VO4, β-glycerophosphate, and sodium pyrophosphate. Lysates were quantified for protein concentration and separated on 12% SDS-PAGE gels. Western blots of phospho-ERK were made for serum-treated and serum+Canstatin-treated HUVECs using anti-phospho-ERK antibodies (New England Biolabs, Beverly, Mass., USA). […]
# WM-164 cells = experiment: MTT cell viability assay; format: cell-based, human
# Excerpt: The MTT assay was used to evaluate cell viability in C-PAE endothelial cells and WM-164 melanoma cells after treatment with Tumstatin, Tum-1, Tum-2, Tum-3 and Tum-4. The results are shown in FIGS. 34A and 34B, which are a pair of graphs showing the effect of increasing concentration (x-axis) of Tumstatin, Tum-1, Tum-2, Tum-3 and Tum-4 on the cell viability (y-axis) of C-PAE cells (FIG. 34A) and WM-164 cells (FIG. 34B). Each point represents the mean ±the standard error of the mean for triplicate wells.
Molecule,inhibition of tube formation ([1]; 1 mg of Canstatin protein produced in 293 cells),ED50 [1] [µg/mL],fractional tumor volume as % of vehicle only-injected mice (PC-3 tumors) [%],"fractional tumor volume, fold less than vehicle (PC-3 tumors) [fold]",effect on ERK activation (ERK),concentration of maximum inhibition [1] [ng/mL],"Percentage of tube formation after treatment ([1]; 1 mg/ml of protein, produced in 293 cells)",effect on viability of WM-164 melanoma cells (WM-164 cells)
"Canstatin: NC1 domain of the α2 chain of Type IV collagen (SEQ ID NO:6) (protein, listed as Homo sapiens) VSIGYLLVKHSQTDQEPMCPVGMNKLWSGYSLLYFEGQEKAHNQDLGLAGSCLARFSTMPFLYCNPGDVCYYASRNDKSYWLSTTAPLPMMPVAEDEIKPYISRCSVCEAPAIAIAVHSQDVSIPHCPAGWRSLWIGYSFLMHTAAGDEGGGQSLVSPGSCLEDFRATPFIECNGGRGTCHYYANKYSFWLTTIPEQSFQGSPSADTLKAGLIRTHISRCQVCMKNL",near complete inhibition,0.4,55,1.8,did not alter early activation of ERK,–,–,–
"Tumstatin: NC1 domain of the α3 chain of type IV collagen, residues 1-244 (SEQ ID NO:10) (protein, listed as Homo sapiens) GLKGKRGDSGSPATWTTRGFVFTRHSQTTAIPSCPEGTVPLYSGFSFLFVQGNQRAHGQDLGTLGSCLQRFTTMPFLFCNVNDVCNFASRNDYSYWLSTPALMPMNMAPITGRALEPYISRCTVCEGPAIAIAVHSQTTDIPPCPHGWISLWKGFSFIMFTSAGSEGTGQALASPGSCLEEFRASPFLECHGRGTCNYYSNSYSFWLASLNPERMFRKPIPSTVKAGELEKIISRCQVCMKKRH",–,0.55,–,–,–,800 to 1000,14.0±4.0,–
"Tum-4: residues 181 to 244 of Tumstatin (SEQ ID NO:25) (protein, Tum-4 (amino acids 181-244 of SEQ ID NO10)) EFRASPFLECHGRGTCNYYSNSYSFWLASLNPERMFRKPIPSTVKAGELEKIISRCQVCMKKRH",–,–,–,–,–,–,–,decreased the viability

# Source: patent US7387779B2, “Anti-angiogenic proteins and fragments and methods of use thereof” (Beth Israel Deaconess Medical Center, priority 1998, dated 2008)
